From patent US9422583B2, “Stereospecific carbonyl reductases” (RUTGERS, THE STATE UNIVERSITY OF NEW JERSEY, priority 2009, dated 2016) come the findings set out here.

Series [1] relates to O=C(CO)c1ccccc1. In words: reduction of 2-hydroxyacetophenone with NADPH, apparent kinetic parameters by Lineweaver-Burk plots. The series is classed as biochemical, Candida parapsilosis. The protocol: (§1) Since environmental pH value can have an influence on the stereochemistry of enzymatic reactions (Secundo and Phillips, Enzyme Microb. Technol., 19, 487-492 (1996)), the effect of the reaction pH on the activities of SCRs catalyzing 2-hydroxyacetophenone reduction was also investigated. […] Subsequently, the enzymes were evaluated under their individual optimal pH, and apparent kinetic parameters were further measured by double reciprocal Lineweaver-Burk plots at various 2-hydroxyacetophenone concentrations with fixed NADPH concentrations. […] The values are the average of three independent experiments.
(§2) Enzyme Assays. Carbonyl reductase activity was measured by a continuous spectrophotometric assay using 2-hydroxyacetophenone as a substrate. One unit of enzyme activity was defined as the amount of enzyme catalyzing the oxidation of 1 μmol NAD(P)H per min under the assay conditions. The standard assay mixture for the enzyme activity comprised of 0.1 M potassium phosphate buffer (pH 6.5), 0.3 mM NAD(P)H, 0.7 mM 2-hydroxyacetophenone and appropriate enzyme in a total volume of 100 μl. The decrease in the amount of the coenzyme was measured spectrophotometrically at 340 nm (extinction coefficient [ε]=6.22 mM^−1 cm^−1). Protein concentration was determined using Bradford reagents (Bio-Rad) with bovine serum albumin as a standard. The pH dependence of enzyme activity was determined over a pH range of 4.0 to 8.5 using the following buffers: 0.1 M acetate (pH 4.0 to 6.0), 0.1 M sodium phosphate (pH 6.0 to 8.0) and 0.1 M Tris-HCl (pH 8.0 to 8.5).

Series [2] is described as follows: Substrate specificity of SCRs with NADPH as cofactor. The series is classed as biochemical. The source says: The substrate specificity of SCRs was investigated under the same conditions as described above. Various carbonyl compounds including aryl ketones, aliphatic ketones, α- and β-ketone esters were used as the substrates with the cofactor of NADPH.
Series [3] in a line: Carbonyl reductase activity and kinetic parameters, continuous spectrophotometric assay (NAD(P)H decrease at 340 nm). The series is classed as biochemical. The conditions noted are these: reduction of 2-hydroxyacetophenone. The protocol:
Catalytic Properties of Recombinant SCRs. The enzymatic activities of SCR1, SCR2, and SCR3 were investigated for reduction of 2-hydroxyacetophenone.
as §1, §2

[4] abbreviates: other: pH 5.0 (optimum pH), NADPH as cofactor at fixed concentration, average of three independent experiments.
[5] abbreviates: other: pH 5.5 (optimum pH), NADPH as cofactor at fixed concentration, average of three independent experiments.
Setting [6] is: other: pH 6.0 (optimum pH), NADPH as cofactor at fixed concentration, average of three independent experiments.
Where [7] appears, read: other: pH 4.5 (optimum pH), NADPH as cofactor.
The mark [8] stands for this setting: compared with the other enzyme (SCR1 vs SCR3).
Where [9] appears, read: NADPH as cofactor, at optimum pH of each enzyme.

In the case of “Candida parapsilosis stereospecific carbonyl reductase SCR1, SEQ ID NO:4 (GenBank FJ939565), recombinant with C-terminal His6 tag (Lodderomyces parapsilosis CDC317)”, in series [1] (setting [4]), the Michaelis constant (Km) (as a rule, the concentration of substrate that gives half-maximal velocity) was found to be 9.83 mM and the Vmax (as a rule, the rate approached at saturating substrate) was determined as 42 µmol/min/mg.

In the case of “Candida parapsilosis stereospecific carbonyl reductase SCR2, SEQ ID NO:3 (GenBank FJ939563), recombinant with C-terminal His6 tag (Lodderomyces parapsilosis CDC317)”, in series [1] (setting [5]), the Km came to 4.81 mM and the Vmax came to 8.83 µmol/min/mg.

Consider “Candida parapsilosis stereospecific carbonyl reductase SCR3, SEQ ID NO:2 (GenBank FJ939564), recombinant with C-terminal His6 tag (Lodderomyces parapsilosis CDC317)”, for which, in series [1] (setting [6]), the Km came out at 4.68 mM and the maximum rate (Vmax) was found to be 32.3 µmol/min/mg.

For “Candida parapsilosis CPADH, SEQ ID NO:1 (GenBank DQ675534) (Lodderomyces parapsilosis CDC317)”, in series [1] (setting [7]), the Km was found to be 5.83 mM and the Vmax is 18.3 µmol/min/mg.

B1: SCR3: stereospecific carbonyl reductase from C. parapsilosis, GenBank FJ939564, recombinant with C-terminal His6 tag (protein, listed as Candida parapsilosis)
chain: MGEIESYCNKELGPLPTKAPTLAKNVLDLFSLKGKVASVTGSSGGIGWAVAEAYAQAGADVAIWYNSHPADEKAEHLQKTYGVRSKAYKCNISDPKSVEETISQQEKDFGTIDVFVANAGIPWADGPVIDLENYDAWNKLINTDINGVFYCAHSIGKIFKKNGKGSLIITASLAGSVVTIPQQQTPYNTAKAACLHLAKSLAVEWAPFARVNTVSPGYFETEINGFADEDMREKWYQLTPLGRMGITEELVGGYLYFASNASTFTTGSDLIIDGGFTCP
modifications: C-terminal His6 tag
On to B1, for which the “specificity to p-Cl-2-hydroxyacetophenone” value in series [2] (setting [8]) was “more specific”. For the same molecule, in series [3] (NADPH as cofactor), the “pH (optimum pH for each enzyme)” value is recorded as 6.0. In series [3] (setting [9]), the Specific activity was found to be 4.23 μmol/min mg protein.

B2: SCR2: stereospecific carbonyl reductase from C. parapsilosis, GenBank FJ939563, recombinant with C-terminal His6 tag (protein, listed as Candida parapsilosis)
chain: MGEIESYCNKELGPLPTKAPTLSKNVLDLFSLKGKVASVTGSSGGIGWAVAEAYAQAGADVAIWYNSHPADEKAEHLQKTYGVRSKAYKCNISDPKSVEETISQQEKDFGTIDVFVANAGVPWTEGPEINVDNYDSWNKIINLDLNGVYYCAHTVGKIFKKNGKGSLVITSSMSGTIVNVPQLQAAYNAAKAACTHLTKSLAVEWAPFARVNCVSPGYIATEISDFVEKDMKAKWWQLTPLGREGLAQELVGAYLYLASNASTYTTGANLAVDGGYTCP
modifications: C-terminal His6 tag
On to B2, for which the “pH (optimum pH for each enzyme)” value in series [3] (NADPH as cofactor) is reported as 5.5. Also, the Specific activity in series [3] (setting [9]) stood at 1.55 μmol/min mg protein; in series [3] (under the assay conditions) it was 1.55 µmol/min/mg protein.

B3: CPADH: C. parapsilosis enzyme encoded by cpadh gene, GenBank DQ675534, comparison enzyme in Table 1 (protein, listed as Candida parapsilosis)
chain: MGEIESYCNKELGPLPTKAPTLSKNVLDLFSLKGKVASVTGSSGGIGWAVAEAYAQAGADVAIWYNSHPADEKAEHLQKTYGVHSKAYKCNISDPKSVEETISQQEKDFGTIDVFVANAGVTWTQGPEIDVDNYDSWNKIISVDLNGVYYCSHNIGKIFKKNGKGSLIITSSISGKIVNIPQLQAPYNTAKAACTHLAKSLAIEWAPFARVNTISPGYIDTDITDFASKDMKAKWWQLTPLGREGLTQELVGGYLYLASNASTFTTGSDVVIDGGYTCP
Consider B3, for which the “pH (optimum pH for each enzyme)” value in series [3] (NADPH as cofactor) stood at 4.5. The Specific activity in series [3] (setting [9]) came out at 2.70 μmol/min mg protein.

B4: SCR1: stereospecific carbonyl reductase from C. parapsilosis, GenBank FJ939565, recombinant with C-terminal His6 tag (protein, listed as Candida parapsilosis)
chain: MSKDETISYCNDQLGPLPTTAPKVSDNVTDLFSFKGKVVSVTGSSGGIGWAVAEGFAQAGADVAIWYHSHNADEKAKYLQEKYGVKSIAYGCNIGVAEEVQKTVDQIESDFGKIDVFVANAGIPWTDGPEIDVQDLSKWTKIIDTDLNSVYYCAHAIGPIFRKQGKGSLVITASMSATIVNVPQLQAAYNVAKAGVKHLSKSLAVEWAPFARVNSVSPGYISTNLTTFANPDLQKKWVQLTPLGREGHPKELVGAYLYLASDAATFTTGCDLAVDGGYTVP
modifications: C-terminal His6 tag
Take B4: the “activity for reduction of ethyl 4-chloro-3-oxobutyrate” value in series [2] (among the tested β-ketoesters) is given as “highest activity”. In addition, the “activity to m-Cl-2-hydroxyacetophenone” value in series [2] (setting [8]) is on record as “higher activity”. Moreover, in series [3] (NADPH as cofactor), the “pH (optimum pH for each enzyme)” value turned out to be 5.0. In series [3] (setting [9]), the Specific activity is listed as 5.16 μmol/min mg protein.
